Source: US8512970B2, “Rapid bioluminescence detection assay” (The Secretary of State for Health, priority 2009, dated 2013)

B1: T. maritima: Adenylate kinase (AK) from Thermotoga maritima, monomer; reporter kinase (protein, UniProt Q9X1I8 1-220, looked up)
Adenylate kinase: MMAYLVFLGPPGAGKGTYAKRLQEITGIPHISTGDIFRDIVKKENDELGKKIKEIMERGELVPDELVNEVVKRRLSEKDCERGFILDGYPRTVAQAEFLDGFLKTQNKELTAAVLFEVPEEVVVQRLTARRICPKCGRIYNLISLPPKEDELCDDCKVKLVQREDDKEETVRHRYKVYLEKTQPVIDYYDKKGILKRVDGTIGIDNVIAEVLKIIGWSDK
B2: S. acidocaldarius: Adenylate kinase (AK) from Sulfolobus acidocaldarius, trimer; reporter kinase (protein, UniProt P35028 1-194, looked up)
Adenylate kinase: MKIGIVTGIPGVGKSTVLAKVKEILDNQGINNKIINYGDFMLATALKLGYAKDRDEMRKLSVEKQKKLQIDAAKGIAEEARAGGEGYLFIDTHAVIRTPSGYLPGLPSYVITEINPSVIFLLEADPKIILSRQKRDTTRNRNDYSDESVILETINFARYAATASAVLAGSTVKVIVNVEGDPSIAANEIIRSMK

Assay: Isoelectric point of reporter kinases (Table 2)
Format: physicochemical

Row | Molecule | pI Actual (if known)
1 | B1 | ~6.7
2 | B2 | > 10
